# Measurements as given in PMC12422955 (Nature, 2025).
# B1: dNOE1–mScarlet (dimeric NOE1 construct, residues 205-481 with five GCN4 residues) (domain or fragment)
# chain: GLKQEIDELQSRVSNLEERLRACMQKLACGKLTGISDPVTVKTSGSRFGSWMTDPLAPEGDNRVWYMDGYHNNRFVREYKSMVDFMNTDNFTSHRLPHPWSGTGQVVYNGSIYFNKFQSHIIIRFDLKTETILKTRSLDYAGYNNMYHYAWGGHSDIDLMVDENGLWAVYATNQNAGNIVISKLDPVSLQILQTWNTSYPKRSAGEAFIICGTLYVTNGYSGGTKVHYAYQTNASTYEYIDIPFQNKYSHISMLDYNPKDRALYAWNNGHQTLYNVTLFHVIR
# modifications: Disulfide-linked dimer (non-reducing), glycosylated. The cystatin SN signal peptide is assumed cleaved after ...AVALA by convention, leaving G plus GCN4 LKQEI. C-terminal GSG-3C-AAAA-mScarlet-His …
# B2: Fc–dNOE1–mScarlet (Fc fusion)
# chain: LKQEIDELQSRVSNLEERLRACMQKLACGKLTGISDPVTVKTSGSRFGSWMTDPLAPEGDNRVWYMDGYHNNRFVREYKSMVDFMNTDNFTSHRLPHPWSGTGQVVYNGSIYFNKFQSHIIIRFDLKTETILKTRSLDYAGYNNMYHYAWGGHSDIDLMVDENGLWAVYATNQNAGNIVISKLDPVSLQILQTWNTSYPKRSAGEAFIICGTLYVTNGYSGGTKVHYAYQTNASTYEYIDIPFQNKYSHISMLDYNPKDRALYAWNNGHQTLYNVTLFHVIR
# modifications: Disulfide-linked, glycosylated dimer. Mouse Fc carrier (before the coiled coil) and C-terminal mScarlet-His left out. The position of the five GCN4 residues relative to Fc is not given; they are …
# B3: recombinant homomeric GluA4 receptor (C-terminal GFP and Strep tag) (receptor, UniProt P19493 21-902, looked up)
# chain: GAFPSSVQIGGLFIRNTDQEYTAFRLAIFLHNTSPNASEAPFNLVPHVDNIETANSFAVTNAFCSQYSRGVFAIFGLYDKRSVHTLTSFCSALHISLITPSFPTEGESQFVLQLRPSLRGALLSLLDHYEWNCFVFLYDTDRGYSILQAIMEKAGQNGWHVSAICVENFNDVSYRQLLEELDRRQEKKFVIDCEIERLQNILEQIVSVGKHVKGYHYIIANLGFKDISLERFIHGGANVTGFQLVDFNTPMVTKLMDRWKKLDQREYPGSETPPKYTSALTYDGVLVMAETFRSLRRQKIDISRRGNAGDCLANPAAPWGQGIDMERTLKQVRIQGLTGNVQFDHYGRRVNYTMDVFELKSTGPRKVGYWNDMDKLVLIQDMPTLGNDTAAIENRTVVVTTIMESPYVMYKKNHEMFEGNDKYEGYCVDLASEIAKHIGIKYKIAIVPDGKYGARDADTKIWNGMVGELVYGKAEIAIAPLTITLVREEVIDFSKPFMSLGISIMIKKPQKSKPGVFSFLDPLAYEIWMCIVFAYIGVSVVLFLVSRFSPYEWHTEEPEDGKEGPSDQPPNEFGIFNSLWFSLGAFMQQGCDISPRSLSGRIVGGVWWFFTLIIISSYTANLAAFLTVERMVSPIESAEDLAKQTEIAYGTLDSGSTKEFFRRSKIAVYEKMWTYMRSAEPSVFTRTTAEGVARVRKSKGKFAFLLESTMNEYTEQRKPCDTMKVGGNLDSKGYGVATPKGSSLGNAVNLAVLKLNEQGLLDKLKNKWWYDKGECGSGGGDSKDKTSALSLSNVAGVFYILVGGLGLAMLVALIEFCYKSRAEAKRMKLTFSEATRNKARLSITGSVGENGRVLTPDCPKAVHTGTAIRQSSGLAVIASDLP
# notes: GluA4; also called recombinant GluA4; rGluA4-GFP; source: tsA201 cells (BacMam), digitonin-solubilised, purified (Strep-Tactin, SEC); not shown: GFP, C-terminal, kept
# How the values were obtained:
# Conditions in all cases: both partners purified
# [1] = biological target: dNOE1–mScarlet (dimeric NOE1 construct, residues 205-481 with five GCN4 residues) (rat, UniProt Q62609 205-481); experiment: SEC; FSEC of the dNOE1 construct alone, in the absence of a reducing agent
# [2] = biological target: B3; experiment: BLI; Octet RED384, 30 °C; Fc–dNOE1–mScarlet (20 μg/ml) captured on AMC biosensor; GluA4–GFP 0.78–50 nM; 20 mM Tris pH 8.0, 150 mM NaCl, 0.075% digitonin with 3 mM glutamate or 2 μM ZK and 10 μM (R,R)-2b; 1:1 binding model
# [3] = biological target: T1, recombinant full-length NOE1–mScarlet-His (rat, UniProt Q62609 25-485); experiment: SEC; FSEC, Superose 6 calibrated with mass markers; 5 nM full-length NOE1–mScarlet with 5–150 nM GluA4, or 1 nM with 1–100 nM CP-AMPARs; mScarlet fluorescence
# T1 construct: signal peptide in the construct; full-length rat NOE1, residues 1-485; Tag joined by an SG linker or an SG–HRV 3C site–AAAA motif; source: tsA201 cells (BacMam), secreted, purified (Ni-NTA, SEC); not shown: mScarlet, C-terminal, kept
# T1 sequence (Q62609 25-485): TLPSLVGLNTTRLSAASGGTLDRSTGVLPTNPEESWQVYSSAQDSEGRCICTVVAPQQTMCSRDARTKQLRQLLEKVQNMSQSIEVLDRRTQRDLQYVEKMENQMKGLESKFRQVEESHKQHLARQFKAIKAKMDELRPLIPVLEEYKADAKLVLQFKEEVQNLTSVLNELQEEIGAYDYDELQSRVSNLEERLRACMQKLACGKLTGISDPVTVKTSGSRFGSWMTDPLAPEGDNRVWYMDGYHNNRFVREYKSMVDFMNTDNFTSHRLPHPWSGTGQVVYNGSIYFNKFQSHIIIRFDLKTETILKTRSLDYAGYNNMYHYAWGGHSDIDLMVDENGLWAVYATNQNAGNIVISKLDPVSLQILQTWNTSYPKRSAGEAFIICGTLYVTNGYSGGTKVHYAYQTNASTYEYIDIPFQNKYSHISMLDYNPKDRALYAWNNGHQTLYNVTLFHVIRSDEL
binder,measurement,setting,value
B1,stoichiometry N,[1],2
B2,Kd,[2],~9.4 nM
B3,stoichiometry N,[3],2 receptors per NOE1 tetramer
